Experiment [1] has as its target IL-6 (Homo sapiens, UniProt P05231). In words: Inhibition of IL-6/sIL-6R/IL-1β induced SAA production from A498 cell line, SAA ELISA. It counts as cell-based. The settings on record: A498 cells; IL-6 (100 ng/ml), sIL-6R (200 ng/ml) and IL-1b (1 ng/ml) pre-incubated with serial dilutions of antibody; dose dependent (FIG. 2A & B). The text has this: (§1) A-498, a renal carcinoma cell line was purchased from ATCC (Rockville, Md.). Cells were maintained according to ATCC instructions in log phase of cell growth in DMEM/10% heat-inactivated FBS, 1% L-Gut, 1% NEAA and 1% NaPyr. CNTO 328, an anti-human IL-6 antibody developed at Centocor and disclosed in U.S. patent application Ser. No. 10/280,716, hereby incorporated by reference into the present application, was used at several concentrations in the assay. F 105, human anti-gp 120 IgGl, also developed at Centocor, was used as a negative control antibody. Anti-SAA monoclonal antibody (clone REU-86.2, Research Diagnostics, Inc.) was used for SAA immunostaining.
(§2) A498 cells were cultured for 24 hrs in 96-well flat bottom tissue culture plates at a concentration of 6×10^4 cells/100 ul in DMEM complete media at 37 °C./5% CO2. Cells were washed with PBS then starved for 1 hr in 100 ul of serum free DMEM media at room temp. A combination of IL-6 (100 ng/ml), sIL-6R (200 ng /ml) and IL-1b (1 ng/ml) mixture was incubated with serial dilutions of CNTO 328 or F105 control antibody for 30 minutes at room temperature. 100 ul of the mixture was added to the cells and incubated at 37 °C./5% CO2 overnight.
(§3) The cell culture supernatant was assayed immediately for hSAA production using Biosource human SAA kit (Camrillo, Calif.) following manufacturer's instructions.

Experiment [2] deals with A498 cells. In words: Induction of SAA production in A498 renal carcinoma cells by cytokines, SAA ELISA of culture supernatant. It counts as cell-based. The settings on record: human renal tumor A498 cells stimulated overnight with the cytokine(s); SAA in culture supernatant by ELISA (FIG. 2A).
Excerpt: as §1, §2, §3

Where only a bound is given, the exact number is not on record here.

Sequence of IL-6 (P05231 30-212): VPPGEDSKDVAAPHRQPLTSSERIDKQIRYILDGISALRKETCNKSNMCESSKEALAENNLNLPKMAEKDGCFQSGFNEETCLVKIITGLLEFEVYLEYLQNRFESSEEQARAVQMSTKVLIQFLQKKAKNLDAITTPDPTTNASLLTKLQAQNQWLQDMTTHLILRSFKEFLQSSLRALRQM

“CNTO 328: an anti-human IL-6 antibody developed at Centocor and disclosed in U.S. patent application Ser. No. 10/280,716”: the “inhibition of IL-6/sIL-6R/IL-1β induced SAA production” value in experiment [1] is “completely inhibited”.

Consider “IL-1b: cytokine used to stimulate A498 cells”, for which the “SAA produced in culture” value in experiment [2] was below 100 ng/mL.

Values taken from patent publication US20050084492A1, “Assay method to monitor the response of anti-cytokine therapy” (priority 2003, published 2005).
